Changes are numbered by the printed parent chain. Numbers in names are those of the source. Where “and” joins values, the source holds several entries; their conditions need not be identical. Equal values may be shown once.
T1: human claudin 6 (CLDN6) (human, UniProt P56747 1-220)
T1 construct: also called human CLDN6; hCLDN6
T1 sequence: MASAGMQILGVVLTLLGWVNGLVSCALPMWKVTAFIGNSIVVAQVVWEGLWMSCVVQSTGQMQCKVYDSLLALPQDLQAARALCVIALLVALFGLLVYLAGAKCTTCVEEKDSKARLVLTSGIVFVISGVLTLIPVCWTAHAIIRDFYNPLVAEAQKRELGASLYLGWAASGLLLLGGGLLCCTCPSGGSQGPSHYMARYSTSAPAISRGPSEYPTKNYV

B1: BG87P-32 (antibody, V domains shown)
VH: QVQLQQSGAETKKPGASVKVSCKASGYSFTDYHINWVRQASGQRLEWMGYIYPGSGHTKKNEKFKGRVTITRDTSASTAYMELSSLRSEDTAVYYCARSGIYHYVSSYYFDHWGKGTTVTVSS
VL: DIQMTQSPSTLSASVGDRVTITCKASQDAGSAVAWYQQKPGKAPKLLIYWASTRHTGVPSRFSGSGSGTEFTLTISSLQPDDFATYYCQQYSSYTFGGGTKVEIK
notes: Solubility engineering variant of BG87P-21
B2: BG87P-z0 (antibody, V domains shown)
VH: B1 VH with Q5V, T11V, S28T, S41P, Y50W, H57Y, K60Y, G66V
VL: B1 VL with A29V, S31T
B3: BG87P-22 (antibody, V domains shown)
VH: B1 VH with Q5V, T11V, S41P, Y50W, H57Y, K60Y, Y95F
VL: B1 VL with A29V, S31T
B4: BG87P-24 (antibody, V domains shown)
VH: B1 VH with Q5V, T11V, S41P, Y50W, H57Y, K60Y, I70L
VL: B1 VL with A29V, S31T
B5: BG87P-23 (antibody, V domains shown)
VH: B1 VH with V2I, Q5V, T11V, S41P, Y50W, H57Y, K60Y
VL: B1 VL with A29V, S31T
B6: BG87P-26 (antibody, V domains shown)
VH: B1 VH with V2I, Q5V, T11V, S41P, Y50W, H57Y, K60Y, Y95F
VL: B1 VL with A29V, S31T
B7: BG87P-25 (antibody, V domains shown)
VH: B1 VH with V2I, Q5V, T11V, S41P, Y50W, H57Y, K60Y, I70L
VL: B1 VL with A29V, S31T
B8: BG87P-27 (antibody, V domains shown)
VH: B1 VH with Q5V, T11V, S41P, Y50W, H57Y, K60Y, I70L, Y95F
VL: B1 VL with A29V, S31T
B9: BG87P-Bz0 (antibody, V domains shown)
VH: QIQLVQSGAEVKKPGASVKVSCKASGYSFTDYHINWVRQAPGQRLEWMGWIYPGSGYTKYNEKFKVRVTLTVDTSASTAYMELSSLRSEDTAVYFCARSGIYHYVSSYYFDHWGKGTTVTVSS
VL: B1 VL with A29V, S31T, A43S, L78V, Y87F
notes: also called BG87-Bz0
B10: BG87P-Bz6 (antibody, V domains shown)
VH: B9 VH
VL: B1 VL with A29V, S31T, L78V, Y87F
B11: BG87P-m6 (antibody, V domains shown)
VH: B9 VH with D111Q
VL: B1 VL with A29V, S31T, A43S, L78V, Y87F
notes: PTM removal variant of BG87P-Bz0; constant regions not restated (parent: human IgG1/kappa)
B12: BG87P-Bz8 (antibody, V domains shown)
VH: B9 VH
VL: B1 VL with A29V, S31T, A43S, L78V
B13: BG87P-m8 (antibody, V domains shown)
VH: B9 VH with H33A
VL: B1 VL with A29V, S31T, A43S, L78V, Y87F
notes: Variant of BG87P-Bz0 with H33A; constant regions not restated (parent: human IgG1/kappa)
B14: BG87P-m7 (antibody, V domains shown)
VH: B9 VH with V66G
VL: B1 VL with A29V, S31T, A43S, L78V, Y87F
notes: as for B11
B15: BG87P-Bz2 (antibody, V domains shown)
VH: B9 VH with S28T
VL: B1 VL with A29V, S31T, A43S, L78V, Y87F
B16: BG87P-Bz4 (antibody, V domains shown)
VH: B9 VH with V72R
VL: B1 VL with A29V, S31T, A43S, L78V, Y87F
B17: BG87P-m5 (antibody, V domains shown)
VH: B9 VH with D111E
VL: B1 VL with A29V, S31T, A43S, L78V, Y87F
notes: as for B11
B18: BG87P-Bz1 (antibody, V domains shown)
VH: B9 VH with I2V
VL: B1 VL with A29V, S31T, A43S, L78V, Y87F
B19: BG87P-Bz5 (antibody, V domains shown)
VH: B9 VH with F95Y
VL: B1 VL with A29V, S31T, A43S, L78V, Y87F
B20: BG87P-Bz7 (antibody, V domains shown)
VH: B9 VH
VL: B1 VL with A29V, S31T, A43S, Y87F
B21: BG87P-Bz3 (antibody, V domains shown)
VH: B9 VH with L70I
VL: B1 VL with A29V, S31T, A43S, L78V, Y87F
B22: BG87P-m1 (antibody, V domains shown)
VH: QIQLQQSGPELVKPGASVKISCKASGYSFTDYHINWVKQRPGQGLEWIGWIYPGSGYTKYNEKFKVKATLTVDTSSSTAYMHLTSLTSEDSAVYFCARSGIYHYVSSYYFEHWGQGTTLTVSS
VL: DIVMTQSHTFMSTSVGDRVSITCKASQDVGTAVAWYQQKPGQSPKLLIYWASTRHTGVPDRFTGSGSGTDFTLTISNVQSEDLADYFCQQYSSYTFGGGTKLEIK
notes: PTM removal variant of chBG87P; constant regions not restated (parent: human IgG1/kappa)
B23: BG87P-m2 (antibody, V domains shown)
VH: B22 VH with E111Q
VL: B22 VL
notes: as for B22
B24: BG87P-m4 (antibody, V domains shown)
VH: B22 VH with H33A, E111D
VL: B22 VL
notes: Variant of chBG87P with H33A; constant regions not restated (parent: human IgG1/kappa)
B25: BG87P-m3 (antibody, V domains shown)
VH: B22 VH with V66G, E111D
VL: B22 VL
notes: PTM removal variant of chBG87P (VH V65G); constant regions not restated (parent: human IgG1/kappa)

biological target: T1, human claudin 6 (CLDN6); assay: FACS, HEK293T-hCLDN6 cells

| FACS Emax ratio to BG87P [ratio] | Binder |
| --- | --- |
| 0.63 | B1 |

biological target: T1, human claudin 6 (CLDN6); assay: FACS, HEK293-hCLDN6 cells

| FACS-Ec50 ratio to BG87P [ratio] | Binder |
| --- | --- |
| 1.31 | B1 |

biological target: T1, human claudin 6 (CLDN6); assay: FACS, PA-1 cells (endogenous CLDN6)
Protocol: (§1) For affinity determination, CLDN6 over-expressing HEK293T cells and cancer cell line PA-1 which express high levels of human CLDN6 were used to evaluate the binding activity of BG87P related engineering variants. Live cells were seeded in 96-well plate, and were incubated with a series of dilutions of chBG87P and engineered variants thereof. Goat anti-human IgG was used as second antibody to detect antibody binding to the cell surface. EC50 values for dose-dependent binding to CLDN6 expressing cell lines were determined by fitting the dose-response data to the four-parameter logistic model with GraphPad Prism. Cell binding activity of 1st round of BG87P humanization variants against HEK293T/human CLDN6 were compared to chBG87P and shown in FIG. 1A.

| EC50 | Emax ratio to BG87P [ratio] | Top MFI Mean [MFI] | Binder |
| --- | --- | --- | --- |
| 3.25 nM | 0.43 | 53200 | B2 |
| 3.01 nM and 3 nM | 0.54 | – | B3 |
| 2.27 nM | 0.5 | 62400 | B4 |
| 2.49 nM | 0.58 | 72500 | B5 |
| 2.3 nM and 2.52 nM | 0.54 | 68000 | B6 |
| 2.34 nM | 0.59 | 73700 | B7 |
| 1.68 nM | 0.53 | 66700 | B8 |

biological target: T1, human claudin 6 (CLDN6); assay: FACS, HEK293T/human CLDN6 cells
Protocol: as §1
Beginning with the chBG87P antibody and BG87P-Bz0, several additional amino acid changes in the CDR regions of both VH and VL were made to further improve the biophysical properties for therapeutics use in human. The considerations included removing post translational modifications (PTM), improved heat stability (Tm), while maintaining binding activities, the resulted variants are BG87P-m1 (VH SEQ ID NO: 31 and VL SEQ ID NO: 8), BG87P-m2 (VH SEQ ID NO: 32 and VL SEQ ID NO: 8), BG87P-m3 (VH SEQ ID NO: 33 and VL SEQ ID NO: 8), and BG87P-m4 (VH SEQ ID NO: 34 and VL SEQ ID NO: 8) and BG87P-m5 (VH SEQ ID NO: 35 and VL SEQ ID NO: 14), BG87P-m6 (VH SEQ ID NO: 36 and VL SEQ ID NO 14), BG87P-m7 (VH SEQ ID NO: 37 and VL SEQ ID NO: 14), and BG87P-m8 (VH SEQ ID NO: 38 and VL SEQ ID NO: 14). Cell binding activity of chBG87P and BG87P-Bz0 related PTM removal variants against HEK293T/human CLDN6 was compared with chBG87P and BG87-Bz0, respectively ([…]). Cell binding affinity (EC50) and Emax (MFI) was normalized to chBG87P for directly comparison and ranking (Table 7).

| EC50 [nM] | Emax ratio to BG87P [ratio] | Top MFI Mean [MFI] | Binder |
| --- | --- | --- | --- |
| 2.1 | 0.56 | 107000 | B9 |
| 2.79 | 0.75 | 144000 | B10 |
| 2.45 | 0.5 | 95600 | B2 |
| 2.34 | 0.62 | 118000 | B11 |
| 1.71 | 0.68 | 131000 | B12 |
| 48.7 | 0.28 | 54000 | B13 |
| 2.43 | 0.7 | 134000 | B14 |
| 2.12 | 0.71 | 137000 | B3 |
| 2.16 | 0.73 | 141000 | B4 |
| 2.65 | 0.44 | 84300 | B15 |
| 1.88 | 0.57 | 110000 | B16 |
| 4.19 | 0.66 | 126000 | B17 |
| 2.19 | 0.52 | 99700 | B18 |
| 2.43 | 0.77 | 148000 | B5 |
| 2.55 | 0.73 | 141000 | B19 |
| 2.54 | 0.81 | 155000 | B20 |
| 2.3 | 0.77 | 148000 | B6 |
| 2.33 | 0.74 | 143000 | B7 |
| 2.63 | 0.56 | 107000 | B21 |
| 2 | 0.68 | 131000 | B8 |
| 3.56 | 1.08 | 207000 | B22 |
| 2.51 | 1.05 | 202000 | B23 |
| 11.8 | 0.74 | 143000 | B24 |
| 2.32 | 1.18 | 227000 | B25 |
